We go through four molecules from article PMC8791620 (Science Advances, 2022).

Where two headings read alike, the source gives them in different places.

T1: Trs23 (subunit of core TRAPP/TRAPPI in TRAPPII) (S. cerevisiae, UniProt Q03784 1-219)
T1 sequence (looked up): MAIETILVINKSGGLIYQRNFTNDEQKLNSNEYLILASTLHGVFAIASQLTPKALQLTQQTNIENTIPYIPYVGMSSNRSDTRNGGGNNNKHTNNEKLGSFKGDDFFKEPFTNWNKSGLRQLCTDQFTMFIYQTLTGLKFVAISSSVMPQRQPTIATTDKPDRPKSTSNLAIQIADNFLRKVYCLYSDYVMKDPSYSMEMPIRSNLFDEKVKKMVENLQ

T2: Trs33 (subunit of core TRAPP/TRAPPI in TRAPPII) (S. cerevisiae, UniProt Q99394 1-268)
T2 sequence (looked up): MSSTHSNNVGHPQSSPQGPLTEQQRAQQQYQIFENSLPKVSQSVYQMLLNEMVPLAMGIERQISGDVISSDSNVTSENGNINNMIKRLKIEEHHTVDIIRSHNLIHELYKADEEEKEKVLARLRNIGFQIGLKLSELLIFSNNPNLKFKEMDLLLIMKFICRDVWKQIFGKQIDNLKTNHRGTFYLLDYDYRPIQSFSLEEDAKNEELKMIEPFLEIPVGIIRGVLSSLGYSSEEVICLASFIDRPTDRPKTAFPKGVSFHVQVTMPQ

T3: Trs120 (3xFLAG-tagged, subunit of TRAPPII) (S. cerevisiae, UniProt Q04183 1-1289)
T3 sequence: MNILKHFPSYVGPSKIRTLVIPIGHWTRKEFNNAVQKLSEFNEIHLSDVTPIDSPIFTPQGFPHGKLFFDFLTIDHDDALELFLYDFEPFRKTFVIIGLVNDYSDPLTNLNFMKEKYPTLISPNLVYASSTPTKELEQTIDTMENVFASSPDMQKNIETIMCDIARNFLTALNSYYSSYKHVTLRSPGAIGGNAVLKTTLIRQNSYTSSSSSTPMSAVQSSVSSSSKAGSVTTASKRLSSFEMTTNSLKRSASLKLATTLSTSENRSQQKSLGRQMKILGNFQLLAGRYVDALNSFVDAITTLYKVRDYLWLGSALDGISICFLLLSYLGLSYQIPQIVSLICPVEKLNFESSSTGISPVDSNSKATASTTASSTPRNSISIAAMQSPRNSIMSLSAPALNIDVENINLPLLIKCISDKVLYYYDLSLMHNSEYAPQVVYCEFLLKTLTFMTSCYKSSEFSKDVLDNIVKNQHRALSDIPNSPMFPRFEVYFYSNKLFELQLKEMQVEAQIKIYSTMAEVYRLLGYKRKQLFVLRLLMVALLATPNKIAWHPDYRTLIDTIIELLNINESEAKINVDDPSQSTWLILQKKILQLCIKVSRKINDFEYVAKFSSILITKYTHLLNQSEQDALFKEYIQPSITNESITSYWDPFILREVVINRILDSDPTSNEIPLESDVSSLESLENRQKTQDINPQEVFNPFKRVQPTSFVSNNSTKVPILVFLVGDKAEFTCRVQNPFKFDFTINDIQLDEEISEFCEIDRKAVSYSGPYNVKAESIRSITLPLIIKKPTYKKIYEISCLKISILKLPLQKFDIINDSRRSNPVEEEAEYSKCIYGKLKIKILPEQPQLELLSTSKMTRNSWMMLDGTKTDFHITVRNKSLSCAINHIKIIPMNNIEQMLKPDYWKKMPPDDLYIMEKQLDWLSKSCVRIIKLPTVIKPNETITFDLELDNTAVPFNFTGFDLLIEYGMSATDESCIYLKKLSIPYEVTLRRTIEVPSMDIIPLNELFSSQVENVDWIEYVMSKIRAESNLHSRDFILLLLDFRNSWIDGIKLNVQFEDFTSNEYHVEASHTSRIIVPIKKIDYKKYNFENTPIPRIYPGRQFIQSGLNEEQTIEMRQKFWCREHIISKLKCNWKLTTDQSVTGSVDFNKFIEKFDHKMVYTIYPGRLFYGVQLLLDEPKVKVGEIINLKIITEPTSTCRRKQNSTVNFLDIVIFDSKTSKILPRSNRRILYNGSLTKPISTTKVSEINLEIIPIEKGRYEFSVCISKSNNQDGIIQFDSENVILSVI

B1: His-sumo-Ypt32 (wild type) (enzyme, S. cerevisiae, UniProt P51996 1-222, looked up)
chain: MSNEDYGYDYDYLFKIVLIGDSGVGKSNLLSRFTTDEFNIESKSTIGVEFATRTIEVENKKIKAQIWDTAGQERYRAITSAYYRGAVGALIVYDISKSSSYENCNHWLTELRENADDNVAVGLIGNKSDLAHLRAVPTDEAKNFAMENQMLFTETSALNSDNVDKAFRELIVAIFQMVSKHQVDLSGSGTNNMGSNGAPKGPTISLTPAPKEDKKKKSSNCC
B2: Bet5 (subunit of core TRAPP/TRAPPI in TRAPPII) (natural protein, S. cerevisiae, UniProt Q03630 1-159, looked up)
chain: MGIYSFWIFDRHCNCIFDREWTLASNSASGTINSKQNEEDAKLLYGMIFSLRSITQKLSKGSVKNDIRSISTGKYRVHTYCTASGLWFVLLSDFKQQSYTQVLQYIYSHIYVKYVSNNLLSPYDFAENENEMRGQGTRKITNRNFISVLESFLAPMVNQ
B3: Bet3 (subunit of core TRAPP/TRAPPI in TRAPPII) (natural protein, S. cerevisiae, UniProt P36149 1-193, looked up)
chain: MVSTTQSRSLKAMGEEIWKNKTEKINTELFTLTYGSIVAQLCQDYERDFNKVNDHLYSMGYNIGCRLIEDFLARTALPRCENLVKTSEVLSKCAFKIFLNITPNITNWSHNKDTFSLILDENPLADFVELPMDAMKSLWYSNILCGVLKGSLEMVQLDCDVWFVSDILRGDSQTEIKVKLNRILKDEIPIGED
B4: Trs31 (subunit of core TRAPP/TRAPPI in TRAPPII) (natural protein, S. cerevisiae, UniProt Q03337 1-283, looked up)
chain: MSQRIIQPSASDQQFPGKSDGYEYTVGPKQAITSEASTTYIPSRIYSESLLFKRQEASLSAMAFLFQEMISQLHRTCKTAGDFETKLSDYGHNIGIRLLELLNFRASVSPSSLPRASAFLSQNESSSKLSNASNSPGMLANSSTATSASANERLQEKQTESLSNYITKMRRRDLKILDILQFIHGTLWSYLFNHVSDDLVKSSERDNEYMIVDNFPTLTQFIPGENVSCEYFVCGIIKGFLFNAGFPCGVTAHRMPQGGHSQRTVYLIQFDRQVLDREGLRFG

Assay [1] has as its target B4. Nature of the assay: cryo-EM structure.
Assay [2] concerns the target B3. Nature of the assay: cryo-EM structure.
Assay [3] concerns the target T1, Trs23 (subunit of core TRAPP/TRAPPI in …). Nature of the assay: cryo-EM structure.
The target of assay [4] is T2, Trs33 (subunit of core TRAPP/TRAPPI in …). The assay is described as follows: cryo-EM structure.
The target of assay [5] is B4. The assay is described as follows: cryo-EM structure. This is another data set of the same source.
For assay [6], the target named is T3, Trs120 (3xFLAG-tagged, subunit of …). The assay is described as follows: cross-linking.

In the case of B1, in assay [1], the binding result was “binds”. Regarding B2, the binding result in assay [2] and in assay [3] was “binds” in each case. With B3, the binding result in assay [4], in assay [3] and in assay [5] was “binds” throughout.

For B4, the binding result in assay [6] was “binds”.
